How the values were obtained:
[1] = target: His-Cdc42 (UniProt P60953)
[2] = system: Histidine-tagged Rac1

Chain of His-Cdc42 (P60953 whole entry, looked up): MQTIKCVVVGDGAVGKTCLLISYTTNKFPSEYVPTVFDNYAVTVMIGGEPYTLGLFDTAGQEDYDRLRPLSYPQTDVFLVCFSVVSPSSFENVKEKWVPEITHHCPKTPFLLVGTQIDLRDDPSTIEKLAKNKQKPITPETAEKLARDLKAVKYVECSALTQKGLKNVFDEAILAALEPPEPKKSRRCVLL
Chain of Demetalated bovine SOD1 (chain, as listed by the source): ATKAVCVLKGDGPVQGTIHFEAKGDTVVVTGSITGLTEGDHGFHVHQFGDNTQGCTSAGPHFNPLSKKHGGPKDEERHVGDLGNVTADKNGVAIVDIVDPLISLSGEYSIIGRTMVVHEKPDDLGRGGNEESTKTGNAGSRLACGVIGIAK
Chain of Bovine copper/zinc superoxide dismutase (SOD1), native (chain, as listed by the source): as above

Substance | Cdc42 GTPase assay (rate of 32Pi release from γP32-GTP) [1] | Rac1 GTPase assay (rate of 32Pi release from γP32-GTP) [2]
Bovine copper/zinc superoxide dismutase (SOD1), native | The ability of SOD1 to inhibit GTP hydrolysis was also specific for Rac1 and was not observed with the closely related small GTPase Cdc42 | –
Demetalated bovine SOD1 | – | also did not inhibit Rac1 GTPase activity (FIG. 6B)

From patent publication US20070265350
